One molecule from patent US6403769 can be followed below.

Experiment [1] has as its target KGFR-HFc fusion protein (construct not specified). Put plainly: binding of 125I-KGF to KGFR-HFc in solution, capture on Gamma Bind G.
Experiment [2] has as its target keratinocyte growth factor receptor (KGFR) (UniProt P21803). Put plainly: cell-based or functional assay.
Experiment [3] has the same target. The experiment is described as follows: competition with 125I-KGF on 32D cells expressing KGFR.

B1: keratinocyte growth factor (KGF) (ligand, human, UniProt P21781 32-194, looked up)
chain: CNDMTPEQMATNVNCSSPERHTRSYDYMEGGDIRVRRLFCRTQWYLRIDKRGKVKGTQEMKNNYNIMEIRTVAVGIVAIKGVESEFYLAMNKEGKLYAKKECNEDCNFKELILENHYNTYASAKWTHNGGEMFVALNQKGIPVRGKKTKKEQKTAHFLPMAIT
The Kd is the constant that tells how readily two partners part at equilibrium. The low end stands for tighter binding, the high end for weaker binding. For the molecule B1, in experiment [1], the ligand concentration at which saturable binding was achieved is 15 to 25 ng/mL. Further, the half-maximal stimulation of 3H-thymidine uptake in BALB/MK cells in experiment [2] is 10 pM. Moreover, the Kd in experiment [3] came out at 0.13 nM.
